Like-named read-outs stand apart in the source and are kept apart here. Blank lines part the entries; values can stand above or below the molecule they belong to. Bridges are numbered along the chain shown (N, C = ends). Primed or numbered codes have the meaning given here. Where no end group is shown, it is not given here. [ ]: non-standard residue; d: D form. The star is where a group is joined. trimesoyl = trimesic acid scaffold joined by three amide bonds (bicycle); trimesoyl″ = trimesic acid scaffold joined by three amide bonds; FITC = O=C1OC2(c3ccc(O)cc3Oc3cc(O)ccc32)c2ccc(NC(=S)*)cc21; Phg = N[C@H](C(=O)O)c1ccccc1; Nle = CCCC[C@H](N)C(=O)O; Pra = C#CC[C@H](N)C(=O)O; dNal = D-naphthylalanine; Dap = NC[C@H](N)C(=O)O
Tests used:
[1] = molecular target: GST-tagged K-Ras G12V protein (Example 4) (UniProt P01116); assay: FA, binding in solution
[2] = molecular target: T1, ybbR-tagged extracellular domain of human TNFα (aa 77-233) (human, UniProt P01375 77-233, biotin or Texas Red attached at the ybbR tag by Sfp where labeled TNFα was used); assay: competition ELISA: 0.5 nM HRP-TNFR1 on immobilized biotinylated TNFα
T1 construct: range 77-233; Expressed in E. coli from pET-22b(+)-ybbR; also called TNF-alpha; tumor necrosis factor-alpha
Protocol: A Nunc 96F Maxisorp plate was coated overnight with 100 μL of 5 mg/mL Neutravidin (in 50 mM Na₂CO₃, pH 9.0) at 4° C. The solution was removed and each well was washed with 100 μL of the blocking buffer containing 3% BSA. […] The wells were quickly washed twice with a washing buffer (0.01% Tween 20 in PBS buffer). […] After incubation at 4° C. for 1.5 h, the plate was washed twice with the washing buffer and incubated with 100 μL of 3,3′,5,5′-tetramethylbenzidine (Sigma) for 30 min. The reaction was quenched by the addition of 100 μL of 1 M phosphoric acid. The absorbance at 450 nm was measured and plotted against the peptide concentration and the IC₅₀ value was obtained by curve fitting.

[3] = molecular target: GST-tagged K-Ras G12V protein (Example 4) (UniProt P01116); assay: FA, binding in solution; remark: listed apart in the source
[4] = molecular target: T1, ybbR-tagged extracellular domain of …; assay: FA, resynthesized FITC-labeled peptide titrated with TNFα
[5] = molecular target: T1, ybbR-tagged extracellular domain of …; assay: FA competition; competitor FITC-labeled Necrostatin C1 (100 nM), TNFα 1600 nM
[6] = molecular target: T1, ybbR-tagged extracellular domain of …; assay: FA competition; competitor FITC-labeled Necrostatin C2 (100 nM), TNFα 1600 nM

T1 sequence (P01375 other isoform, or with tags, fused parts or gaps limits assumed): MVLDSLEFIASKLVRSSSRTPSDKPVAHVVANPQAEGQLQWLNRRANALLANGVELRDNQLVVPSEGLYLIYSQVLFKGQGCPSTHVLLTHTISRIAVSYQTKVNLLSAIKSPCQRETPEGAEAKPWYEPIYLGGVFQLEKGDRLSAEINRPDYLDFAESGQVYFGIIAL

- Kd [1]: 6000 nM
Molecule: peptide 13, bicyclo(Ala-Orn-Phg-Arg-d-Asn-Pra-Ile-d-Phe-K-FNalR4-Dap)-K

- IC50 [2]: 3100 nM
B1: Necrostatin C1 (label not stated) (peptide)
peptide: [Phg]Y[dA]KY[dF]G[dK]H[Dap]
modifications: linker (positions not given here) via trimesic acid (trimesoyl); not fully specified (bridges)
notes: As used in the TNFα-TNFR1 ELISA and the MTT assays; also called Nercostatin C1

- Kd [3]: 2000 nM
B2: peptide 12, bicyclo(d-Ala-Gln-Phg-Arg-d-Asn-Pra-Ile-Asp-K-FNalR4-Dap)-K (peptide)
peptide: [dA]Q[Phg]R[dN][Pra]IDKF[dNal]RRRR[Dap]K
modifications: linker N-1-9-16 via trimesoyl″; not fully specified (residue 6); also: dye label on C-terminal Lys not given here

- Kd [4]: 450 nM
Molecule: [Phg]Y[dA]KY[dF]G[dK]H[Dap]K(FITC) (linker (positions not given here) via trimesoyl; not fully specified (bridges)) [FITC-labeled Necrostatin C1 (resynthesized)]

B3: Necrostatin C2 (unlabeled) (peptide)
peptide: A[dF]W[dT]QK[Nle][dL]AH[Dap]
modifications: linker (positions not given here) via trimesic acid (trimesoyl); not fully specified (bridges)
notes: also called unlabeled Necrostatin C2
- IC50 [5]: ~4000 nM
- IC50 [6]: ~2000 nM

Source: patent US20160115202A1 (OHIO STATE INNOVATION FOUNDATION, published 2016)
